Assay results published in paper PMC4751086, “Structural Study of the HD-PTP Bro1 Domain in a Complex with the Core Region of STAM2, a Subunit of ESCRT-0” (PLoS ONE, 2016).

T1: HD-PTP(1–361) (human, UniProt Q9H3S7 1-361)
T1 construct: also called HD-PTP Bro1 domain; PTPN23; source: E. coli BL21(DE3) RIL, purified (Ni-NTA, TEV protease, gel filtration); not shown: (His)6, N-terminal, cleaved
T1 sequence (looked up): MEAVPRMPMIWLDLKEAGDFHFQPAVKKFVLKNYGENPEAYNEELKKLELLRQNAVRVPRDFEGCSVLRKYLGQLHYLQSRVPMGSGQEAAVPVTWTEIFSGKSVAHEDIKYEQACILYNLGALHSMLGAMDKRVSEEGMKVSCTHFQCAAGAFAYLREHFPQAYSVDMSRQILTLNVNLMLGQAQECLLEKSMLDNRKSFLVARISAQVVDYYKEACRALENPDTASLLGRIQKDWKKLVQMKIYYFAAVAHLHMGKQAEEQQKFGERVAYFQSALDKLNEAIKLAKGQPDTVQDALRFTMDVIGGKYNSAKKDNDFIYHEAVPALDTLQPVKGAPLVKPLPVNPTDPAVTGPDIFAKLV

T2: HD-PTP(1–361;T145K) (human, UniProt Q9H3S7 1-361, T145K)
T2 construct: source: E. coli BL21(DE3) RIL, purified (Ni-NTA, gel filtration)
T2 sequence (looked up): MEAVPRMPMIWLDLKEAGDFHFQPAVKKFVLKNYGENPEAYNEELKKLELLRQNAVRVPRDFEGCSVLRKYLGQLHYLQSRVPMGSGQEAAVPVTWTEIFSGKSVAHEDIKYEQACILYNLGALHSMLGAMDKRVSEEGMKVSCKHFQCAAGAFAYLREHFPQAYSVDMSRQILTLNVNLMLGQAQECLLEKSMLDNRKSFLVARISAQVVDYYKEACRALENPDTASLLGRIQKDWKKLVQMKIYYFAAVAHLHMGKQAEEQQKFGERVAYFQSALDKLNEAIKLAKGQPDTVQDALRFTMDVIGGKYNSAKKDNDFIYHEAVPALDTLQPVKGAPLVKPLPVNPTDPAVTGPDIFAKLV

T3: HD-PTP(1–361;T145R) (human, UniProt Q9H3S7 1-361, T145R)
T3 construct: source: E. coli BL21(DE3) RIL, purified (Ni-NTA, gel filtration)
T3 sequence (looked up): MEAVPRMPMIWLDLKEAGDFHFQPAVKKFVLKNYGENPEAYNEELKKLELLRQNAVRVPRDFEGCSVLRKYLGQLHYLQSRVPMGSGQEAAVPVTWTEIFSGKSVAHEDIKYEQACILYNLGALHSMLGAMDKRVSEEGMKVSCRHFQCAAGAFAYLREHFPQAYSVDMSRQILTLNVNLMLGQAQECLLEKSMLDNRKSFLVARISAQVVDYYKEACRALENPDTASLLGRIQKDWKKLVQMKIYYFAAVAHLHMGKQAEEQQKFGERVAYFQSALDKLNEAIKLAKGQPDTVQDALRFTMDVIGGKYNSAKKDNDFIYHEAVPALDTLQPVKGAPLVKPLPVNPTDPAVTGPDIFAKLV

T4: HD-PTP(1–361) with T145A substitution (human, UniProt Q9H3S7 1-361, T145A)
T4 construct: source: E. coli BL21(DE3) RIL, purified (Ni-NTA, gel filtration)
T4 sequence (looked up): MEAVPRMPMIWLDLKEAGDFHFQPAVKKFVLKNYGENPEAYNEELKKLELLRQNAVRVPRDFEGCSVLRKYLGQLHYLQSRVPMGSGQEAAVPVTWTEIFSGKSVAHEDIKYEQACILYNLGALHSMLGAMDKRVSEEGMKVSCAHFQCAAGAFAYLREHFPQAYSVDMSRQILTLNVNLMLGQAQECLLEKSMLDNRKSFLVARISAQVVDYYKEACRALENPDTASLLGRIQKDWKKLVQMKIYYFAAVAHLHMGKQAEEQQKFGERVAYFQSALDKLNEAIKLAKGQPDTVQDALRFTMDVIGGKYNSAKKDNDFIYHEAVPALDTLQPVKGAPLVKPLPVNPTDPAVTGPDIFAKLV


Columns and labels:
Conditions in all cases: both partners purified
[1] = biological target: T1, HD-PTP(1–361); assay: SEC; Superose 6 10/300 GL gel filtration column; mixture of HD-PTP(1–361) and STAM2 fragment; peak fractions analysed by SDS-PAGE and Coomassie staining
[2] = biological target: T1, HD-PTP(1–361); assay: ITC; 0.5 mM peptide titrated into 50 μM protein; iTC200; 2°C as printed; 20 mM Tris-HCl (pH 7.5), 100 mM NaCl
[3] = biological target: T2, HD-PTP(1–361;T145K); assay: as above
[4] = biological target: T3, HD-PTP(1–361;T145R); assay: as above
[5] = biological target: T4, HD-PTP(1–361) with T145A substitution; assay: as above

Row | binding result [1] | Kd [2] | Kd [3] | Kd [4] | Kd [5] | Binder
1 | binds |  |  |  |  | STAM2(260–370) (domain or fragment, STAM2, human, core region, residues 260–370; also called STAM2 core region containing residues 260–370; signal-transducing adaptor molecule 2; source: E. coli BL21(DE3) RIL, purified (Ni-NTA, gel filtration)) not shown
2 | binds |  |  |  |  | STAM2(311–370) (domain or fragment, source: E. coli BL21(DE3) RIL, purified (Ni-NTA, gel filtration)) not shown
3 |  | < 8 µM | < 8 µM | < 8 µM | < 8 µM | KEEEDDDMKELENWAGSM (peptide, UniProt Q9H444 207-224, looked up, CHMP4B, residues 207–224 (18-mer; the polypeptide terminates with Met224); also called CHMP4B peptide of 18-mer (residues 207–224); charged multivesicular body protein 4B; source: synthetic peptide, bought: Peptron (Korea)) [CHMP4B(207–224)]
